The source of these data is publication PMC11437284.

Positions count from the first letter of the chain named. Numbers in names are those of the source.

What all share (experiment): SPR
For assay [1], the target named is D1 domain of FcμR (FcμR-D1) (human) (UniProt O60667).
The next assay addresses cat Fcμ–J complex (cat).
For assay [2], the target named is human Fcμ–J complex (pentameric IgM core: IgM-Fc pentamer and the J chain) (human) (UniProt P01871).
For assay [3], the target named is human Fcμ–J–CD5L complex (human) (UniProt P01871).

On to “human Fcμ–J–CD5L complex (from UniProt P01871 106-433; P01591 23-159; O43866 20-347)”, for which the Kd in assay [1] is 0.4 nM.
As for “cat CD5L (3-SRCR isoform) (from UniProt A0A1E1GEY0 20-355) (natural protein)”, in the assay with cat Fcμ–J complex (cat), the Kd was 14.4 nM.

B1: human CD5L (CD5 antigen-like), wild type (natural protein)
chain: SPSGVRLVGGLHRCEGRVEVEQKGQWGTVCDDGWDIKDVAVLCRELGCGAASGTPSGILYEPPAEKEQKVLIQSVSCTGTEDTLAQCEQEEVYDCSHDEDAGASCENPESSFSPVPEGVRLADGPGHCKGRVEVKHQNQWYTVCQTGWSLRAAKVVCRQLGCGRAVLTQKRCNKHAYGRKPIWLSQMSCSGREATLQDCPSGPWGKNTCNHDEDTWVECEDPFDLRLVGGDNLCSGRLEVLHKGVWGSVCDDNWGEKEDQVVCKQLGCGKSLSPSFRDRKCYGPGVGRIWLDNVRCSGEEQSLEQCQHRFWGFHDCTHQEDVAVICSG
On to B1, for which the Kd in assay [2] turned out to be 18.1 nM.

B2: human CD5L C191S (natural protein)
chain: B1 chain with C172S
With B2, the Kd in assay [2] is 13.2 nM.

B3: D1 domain of FcμR (FcμR-D1) (domain or fragment)
chain: RILPEVKVEGELGGSVTIKCPLPEMHVRIYLCREMAGSGTCGTVVSTTNFIKAEYKGRVTLKQYPRKNLFLVEVTQLTESDSGVYACGAGMNTDRGKTQKVTLNVHS
Regarding B3, the Kd in assay [3] came out at 8.8 nM.
